Source: the DeepSol protein solubility set

test: soluble on expression in E. coli; label from the status in PepcDB or PDB records

Row | Sequence | soluble on expression in E. coli
1 | MQLFDLPLDQLQTYKPEKTAPKDFSEFWKLSLEELAKVQAEPDLQPVDYPADGVKVYRLTYKSFGNARITGWYAVPDKEGPHPAIVKYHGYNASYDGEIHEMVNWALHGYATFGMLVRGQQSSEDTSISPHGHALGWMTKGILDKDTYYYRGVYLDAVRALEVISSFDEVDETRIGVTGGSQGGGLTIAAAALSDIPKAAVADYPYLSNFERAIDVALEEPYLEINSFFRRNGSPETEVQAMKTLSYFDIMNLAYRVKVPVLMSIGLIDKVTPPSTVFAAYNHLETKKELKVYRYFGHEYIPAFQTEKLAFFKQHLKG | soluble
2 | MQLQLICEDPSQQSHLDELAARWQLSHTDESDFALVLTAERLELRKVDEPKLGAIFVDLIGGAVGHRRKFGGGKGQAIAKAAGLNKGATPTVLDGTAGLGRDAFVLASLGCKVQMVERHPVVAALLDDGLARAKQDPEIGTWVSERMSLIHASSHDALDQLAQDREFVKPDVVYLDPMYPHPENKKKSALVKKEMRVFQSLVGADLDADGLLEPALALATKRVVVKRPDYANWLNEQKPSMAIETKKNRFDVYVKASMALEHHHHHH | soluble
3 | MQMESQRRDVFYVSDGTAITCETLGHVVLGQFAVQPNEKTFPFVESDEKLSELLKQIQRSYQLHGVKPLVFFSMVIPEMRTRLLQAPAHFYDVLESIVQRVSLDIEMEPAPKLQRSRSVGKDSDTYFDRIAAIEYTLAHDDGVSLKDLDRADIILLGVSRSGKTPTSLYMAMQFGLRVVNYPFIAEDMHAMRLLPEFEFHRHKLFGLTINAERLTEIRENRLAGSEYASNQQCQQELATVEALFRREAISYINTSSLSVEEISTRILERTGLKRRLF | not soluble
4 | MQMNHPIYIASDHTGLELKSLVIKHLEQQKLQVIDLGPTELDPLDDYPDYAFLLAQTMQANPNSLGILICGTGVGVCMAANKAKGILAALVVDSKTAALARQHDDANVLCLSSRFVVPEENIKIVDEFLQAQFEGGRHSKRVGKIIAYEREK | soluble
5 | MQMNTQREQLIHIWLTSVLNSDEFKIQFLAGDASFRRYARVEYKNNTYMLMDAPPEKEDCVPFVHIDEFFDRHGVRVPHILAKDLVQGFLLLEDFGDVLLSTLLNAQTVNHYYLQAFAQLIHLQSIDGQDQFPAYTFEKLMAEMHLLTEWMLPSLDIQPSSAEQDIIQQTFELLANTALNQPQVIVHRDFHSRNLMKIQGEEELGVIDFQDAVIGADTYDLISITRDAYVQWGEDQVITWFEMFYDLLPDTSKHHRDFEQFKRDADFMAIQRHIKILGIFVRLFERDGKSSYLKDLPRVMWYLLQESRPYAELKPFVEFIQYQVMPKFEQKYGGYEVVKK | not soluble
6 | MQNDAGQTVELYVPRKCSSSNRIIGPKDHASVQIDFVDVDPETGRMIPGKSTRYAICGAIRRMGESDDAILRLAQKDGLVPRDDVKSN | not soluble
7 | MQNEKTLRKIKKLLALSKSSNPHEAAKALEMAQKLMQENRINQVEIEFSQYHGKQKTAKKSARYVHQLVGVITRAFGVDAYMSNFYPDKDEAEEKMHVVFYGAEGRPEIASYCFDVLYRQLQTARKEFLATQSKRLKRSTLISRGDEFCQGWVFGVHENVKEFAMTPEEKGKLERYRYNGFKDLQTAKVRDAGETRDYGLALSQGYKQGSKVTLNHGVNGKETTKLGGDEMKENNGWIACNLGSA | not soluble
8 | MQNGAMKAWLDSSYLAGANQSYIEQLYEDFLTDPGSVDDSWRSIFQQLPTTGVKPDQLHSQTREYFRRLAKDSTRYNSSINDPDIDAKQVKVLQLINAFRFRGHQHANLDPLGLWKQESVPDLDPSYHNLTEADFQNTFNVGSFAIGKETMKLADLYAALKQTYCGSVGAEYMHITNTEEKRWIQQRIESVVGKPTFSDAEKRRFLSELTAAEGLERYLGAKFPGAKRFSLEGGDSLVTMLKEMIRHAGKNGTREVVLGMAHRGRLNVLINVLGKKPEDLFDEFAGKHKEHLGTGDVKYHQGFSSDVETEGGLVHLALAFNPSHLEIVSPVVIGSVRARRDRLDEARSNMVLPITIHGDAAITGQGVVQETLNMSQARGYEVGGTVRIVINNQIGFTTSNPLDARSTQYCTDIAKMVQAPIFHVNADDPEAVAFVTRLALDFRNTFKRDVMIDLVCYRRHGHNEADEPSATQPVMYQKIKKHPTPRKIYADKLIEQNIASLEDATEMVNLYRDALDHGDCVVEEWRPMNLQSFTWSPYLNHEWDEAYPSKVEMKRLQELARRISSAPEAIEMQSRVAKIYSDRALMASGEKPFDWGGAETLAYATLVDEGIPIRLSGEDAGRGTFFHRHAVIHNQKNGSVYVPLSNIHSGQGDFQVWDSVLSEEAVLAFEYGYATAEPRTLTIWEAQFGDFANGAQVVIDQFISSGEQKWGRMCGLVMLLPHGYEGQGPEHSSARLERYLQLCAEQNMQVCIPSTPAQVYHMIRRQALRGMRRPLIVMSPKSLLRHPLATSSLDELANGSFLPAIGEIDELDPKGIKRVVMCSGKVYYDLLEQRRKNGQTDVAIVRIEQLYPFPHQAVQSVLEQYAHVHDFVWCQEEPLNQGAWYCSQHNFREVIPFGASLRYAGRPASASPAVGYLSVHQKQQQALVNDALNVE | not soluble
9 | MQNMLSMHFFSVMASLNAMASMRVIVFLYQLSILGDCSTIDSLRDLMISQIVLAYNCISVHVNMYISTNGSEASIASRMSTLESCLFLITMNKGSASFGKRRFFYRDLA | soluble
10 | MQQLPKLDLKNKVSAQEWQLRVDLAACYRLLQMHGWDDLIHTHISVCIPGTEHILINAFGLAFEEITASNLVKIDIKGNIIDKDCPFEINPAGFTIHSAVHEVRHDDICALHVHTNETIAVASVEEGLLPLSQYSMFALASMSYHDYEGLAVNDDEKLRLQNDLGDKNFMLLRNHGALTMGKTIGDAFMHMYDLTRACQIQLQVMATGMKPIYAPQSIIDGIKAQANIVHDGETGGQKAWPAMLRRVYRNDPTFAE | not soluble
11 | MQQSYNPQNSLTATTSYSEQEIVCICESLFNEGLQTGRTEQLANFIYNLPQCYQVMESVLKAQALVYFTTQNWKMLYKLLECSKFSPHNHTVLQNLWLDAHYKEAAKTKDRELGAVCKYRIRKKNPFPNTIWDGEETNYCFKSKSRNVLRDAYKKCQYPSVEDKRRLAQQTELSIIQVSNWFKNKRQRERAAGQLDRSSARSNDSDDGSSGCESKPPMNIDSPAPPPLPTSFDLQPYYPSPYTFAPHCDFSYIQNL | not soluble
12 | MQRETGSERVDVDMEKPGMISRWYDDKGFGFILPKTGGEEVFLHISAFRGDRRPRQGDQVWFLASQDAQGRLRAERARLDALTIDPPTVRRGAQAPVTRAQARPAPTPPSALQRPLA | not soluble
13 | MQRHERIRFFITEQCRNLDPTYRNYMYPKQILLGDVPLPLLPNSSLTFRVNSAEKICFRIRLSIDDSQEPLNIGIPLSQVESVSIKDHSAKHPEPALLFLLKKGALERFIQVCNPLLGELHTYHGRKRKMLTYLTVILGMDPHLEQPNPVYCRVSLMANKFTFPFGTAKKILLKDLPIMWQEVLDKQYDRRLKTGIHHDRERMAEMDDEAWDWLMSFLNVKWDKCPSGGRWFVRDKDEILQSNEKLHHKMIYWLNQ | not soluble
14 | MQSATDVAEYCKYDGFDGLKRAISLSDEEILNELDIAHLRGRGGAAYPLGKKWRHLYHAKGTTKYIVCNADEGEPGTFKDKVLLSEDPLSVIEGMIIAGYLFSAKAGYIYMRGEYRRIQKTFQEALDNARQAGFLGENILGIEGFNYDITIISGAGAYICGENSALLNSIEGKTGRPRVKPPHLADVGLYLQPTLVNNVESFASVPVILREGGQAFLEMGTADGGGTKLICLSGHIKNRGLYEVNLGTPLEEIIYGEQYGGGSATGRALKFIHFGGQSGPIGAVATLRDCLYSYEDLWAHDLSVGSGAIVVMDDSVNVVDYLVHVAAFFAHESCGKCTPCRLGTTRILELLSKFNRNEATASDLPRLEKMLTHVTRLSACGLGQSVANPMKSALALFPEEFETTAETEIYATSKGGWLEHHHHHH | not soluble
15 | MQSDHKEKIAILVDVQNVYYTCREAYRSNFDYNQFWYVATQEKEVVSAKAYAIASNDPKQRQFHHILRGVGFEVMLKPYIQRRDGSAKGDWDVGITLDAIEIAPDVDRVILVSGDGDFSLLVERIQQRYNKKVTVYGVPRLTSQTLIDCADNFVAIDDDFLL | soluble
16 | MQSTATYGSTISSGTSRTLKITEIGGSNLTSGMSPFGGHAASAIRESRTREKKEMSELNDRLASYIEKVRFLEAQNRKMEKDLNLLRGKWGHDSTSVKVMYETELRSAKDLIADSDKERAQLEDQIKKLVEELNNYRNKLHEAERGADVTRKELDNVLGRLGALEAEIELLKRRISLMEESIGHLKRENHRMIDSLHHARIFQAVEQETLNRIDYQNQVQTLLEECDFIRRIHDSEIHDLLAMASRDTTVENREYFKNELSSAIREIRSEYDHVSNTTRTDIESWYKLKVQEIHTQNSRNCLEQNYAREEVKRLRTTLGDMRGKMADLEGRNLLLEKQIEDLNYQMEEDMRSYEQSLNDKDTSINKLRDESKILMVELQMLIDTKQTLDAEIVIYRKMLDGEENRAGLRQLVEQVVKTTSIHQTKEIESLRVLKGETTSHSSYSRSAKGNIAIQEAEPSGKYIVLENISRRDENIGDWKLRRKIAGKREIVFTFPREFTLRAQKSVKIFARGQGVHSPPDSLVYDLEDSFGTGNDVVTTLYNKEGEDRASHSQRASHT | not soluble
17 | MQSWYLLYCKRGQLQRAQEHLERQAVSCLTPMITLEKMVRGKRTSVSEPLFPNYLFVEFDPEVIHTTTINATRGVSHFVRFGAHPAIVPSSVIHQLSIYKPEGVVDPETPYPGDSVIITEGAFEGLKAIFTEPDGETRSMLLLNLLNKEVKQSVKNTGFRKI | not soluble
18 | MQTETIHNIPYVNSNLTSFIDYLEKHYIDQKIGAVISTVNPEIAFAAIKDRDYFDVLSSSNFILPDGIGVVMMSRLTNNRLQSRIAGYDVFKELLGVANKKKKRIFLYGAKKDVIKGVVSKISSEYPNIKIAGYSDGYVQDRTLVAKQIARANPDMVFVALGYPHQEKFIHNYRHLFPKAVSIGLGGSFDVFSGNVKRAPSWMIRLNLEWFYRLILNPWRWKRMLSIPKYALTVLKEEKNKKTFYPKPEKDHTKQI | not soluble
19 | MQTNLERIKKHIEKLDTFTATPGQGTTRLTYSKEDLDARNYLKQEMAKVGLTVSEDAIGNIYGRLEGESPDLPAVIVGSHFDSVPNGGAFDGPAGVITGLEVASVFHEQQIKPHFPLEIIAMVEEEGSRFGAGLLASRAITGKVTTEMLHEMKDIDGITATDAMAKLGFNANRVHRAIRTKESVKAFIELHIEQGPILENASEDVALVDTVVGLTQIKVTVKGQAGHAGTTPMLDRKDALVSAVEILGQLPELAIQEGGGTVLTVGKLNVYPNGANVIPDKVIFTVDIRAKDEIHVQNTLAKTKEIIQATEKNGITCEIKDMIYQQPTHLSKEIHQALTESADQLGFKYRTMVSGAGHDAMIFASLTEVGLIFVPSHNGISHAPEEWTDYDKLQKGIEVVLKTVKKWTEESANESENKTNSFK | not soluble
20 | MQVEQRTLNTAAHPFQITAYWLDQISDFETAVDYPIMIICPGGGFTYHSGREEAPIATRMMAAGMHTVVLNYQLIVGDQSVYPWALQQLGATIDWITTQASAHHVDCQRIILAGFSAGGHVVATYNGVATQPELRTRYHLDHYQGQHAAIILGYPVIDLTAGFPTTSAARNQITTDARLWAAQRLVTPASKPAFVWQTATDESVPPINSLKYVQAMLQHQVATAYHLFGSGIHGLALANHVTQKPGKDKYLNDQAAIWPQLALRWLQEQGLLAGNYLEHHHHHH | soluble
